Measured values reported in US20070224174A1.

Target: murine Axl receptor tyrosine kinase on precursor natural killer (pNK) cells (mouse) (UniProt Q00993)
Assay: cell-based or functional assay

UniProt Q00993, sequence (Q00993 19-888): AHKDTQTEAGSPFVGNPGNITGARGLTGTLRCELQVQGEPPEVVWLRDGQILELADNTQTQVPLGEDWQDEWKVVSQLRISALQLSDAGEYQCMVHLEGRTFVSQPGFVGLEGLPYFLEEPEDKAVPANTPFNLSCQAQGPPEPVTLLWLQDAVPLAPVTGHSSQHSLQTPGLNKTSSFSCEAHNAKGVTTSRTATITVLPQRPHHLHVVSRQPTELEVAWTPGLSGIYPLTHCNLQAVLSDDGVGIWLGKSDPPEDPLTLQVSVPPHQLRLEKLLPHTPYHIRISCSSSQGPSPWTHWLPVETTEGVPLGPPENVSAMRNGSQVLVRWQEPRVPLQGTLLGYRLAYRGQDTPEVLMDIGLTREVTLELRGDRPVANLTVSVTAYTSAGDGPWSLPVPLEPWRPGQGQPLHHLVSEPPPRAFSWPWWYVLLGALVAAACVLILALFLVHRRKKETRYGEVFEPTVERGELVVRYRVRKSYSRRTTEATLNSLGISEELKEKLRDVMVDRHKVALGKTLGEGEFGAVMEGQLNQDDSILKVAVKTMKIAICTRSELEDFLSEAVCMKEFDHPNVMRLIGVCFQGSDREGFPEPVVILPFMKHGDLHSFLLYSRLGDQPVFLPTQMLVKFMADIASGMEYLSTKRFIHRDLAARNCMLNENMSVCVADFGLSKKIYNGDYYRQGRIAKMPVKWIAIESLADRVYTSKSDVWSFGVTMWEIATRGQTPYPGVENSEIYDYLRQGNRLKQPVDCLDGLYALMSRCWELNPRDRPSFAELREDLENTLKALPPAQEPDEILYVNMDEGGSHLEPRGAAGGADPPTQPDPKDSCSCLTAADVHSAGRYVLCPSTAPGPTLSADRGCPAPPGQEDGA

For “murine Gas6 protein secreted from the murine Gas6 transfectant (NIH3T3 transfected with pcDNA3.1-Gas6) (from UniProt Q61592 28-674) (ligand)”, which degree of differentiation of pNK cells into mNK cells (FACS), co-culture with murine Gas6 transfectant against control groups is on record?
The degree of differentiation of pNK cells into mNK cells (FACS), co-culture with murine Gas6 transfectant against control groups was 47%.
